Experimental data from US12365710B2, “HMGB1 protein derivatives for the removal of biofilms” (RESEARCH INSTITUTE AT NATIONWIDE CHILDREN'S HOSPITAL, priority 2018, dated 2025).

Experiments:
[1] = system: Klebsiella pneumoniae biofilms; assay: in vitro disruption of pre-formed biofilms, LIVE/DEAD, CLSM and COMSTAT; format: cell-based; conditions: for % reduction in average thickness (AT), mean±SE / % reduction in biomass (BM), mean±SE: 200 nM added to pre-formed biofilms at 24 h, read at 40 h, vs untreated KP biofilms; for disruption of established K. pneumoniae biofilms (average thickness, biomass): 200 nM added at 24 h, 16 h incubation
Procedure: (§1) FIGS. 5A-5E: Anti-biofilm effect of HMGB1 variants on high priority bacterial pathogens. Indicated HMGB1 variants or antibodies against DNABII proteins (α-1HFEc 1gG, 1 μM) were added at 24 h to the respective preformed bacterial biofilms, in vitro. After 16 h of Incubation, biofilms were stained with LIVE/DEAD®, then visualized via confocal laser scanning microscopy. Images were analyzed by COMSTAT to calculate average thickness and comparison to control was plotted. (FIG. 5A) Full-length HMGB1 isoforms (200 nM unless otherwise indicated) added to UPEC, B. cenocepacia, NTHI, or ESKAPE pathogens. 800 nM rHMGB1 and 200 nM mHMGB1 were added for S. aureus (ESKAPE). 800 nM rHMGB1, 800 nM mHMGB1, or 3.3 μM of α-1HFEc 1gG were added for E. faecium (ESKAPE) and were incubated for 1 h as opposed to 16 h to avoid potential degradation by E. faecium proteases. (FIG. 5B) Representative images of UPEC biofilms incubated with increasing concentrations of rHMGB1. (FIG. 5C) Individual domains of HMGB1 (200 nM) were tested for anti-biofilm activity as above (dotted line indicates control values). Bars represent the SEM. Statistical significance compared to control was assessed with unpaired t-tests, *P<0.05. […] (FIGS. 5D-5E) HMGB1 and variants disrupt preformed Klebsiella pneumoniae biofilms. rHMGB1, HMGB1 C45S (mHMGB1), bovine HMGB1 (bHMGB1), B box, B Box C106S (mB Box), A Box, and A+B Box were added (200 nM) at 24 h to preformed K. pneumoniae biofilms. After 16 h of incubation, biofilms were stained with LIVE/DEAD®, then visualized via confocal laser scanning microscopy. Images were analyzed by COMSTAT to calculate average thickness and total biomass. Error bars represent the SEM. ***P<0.0001; ns=not significant.
An in vitro biofilm assay was used to test the effect of HMGB1 and its variants on established bacterial biofilms. Applicant expressed, (in E. coli) and purified >95% human recombinant full length HMGB1 (rHMGB1; 1-215), a C45S mutated variant (mHMGB1) and the HMGB1 domains A Box (1-89), A+B Boxes (1-176), B Box (80-179), and B Box C106S (mB Box) (FIG. 3). […] To evaluate the effect of HMGB1 and its variants as well as a commercially available native bovine HMGB1 (used as a control) on established bacterial biofilms, each protein was added (at 200 nM), to pre-formed Klebsiella pneumoniae biofilms after 24 h of growth. After a 16 h incubation (40 h total biofilm growth), the biofilms were stained with LIVE/DEAD® and analyzed using confocal laser scanning microscopy (CLSM) and COMSTAT analysis to calculate the average thickness and total biomass of the biofilms. […] The results of this study lead to a noteworthy observation that a single dose of these non-antimicrobial compounds was able to disrupt recalcitrant biofilms. In addition, the HMGB1 variants have disrupted every bacterial species tested to date, which includes Uropathogenic E. coli, Burkholderia cenocepacia, Nontypeable Haemophilus influenzae (FIG. 6). A single dose at this concentration released of bacteria from their protective shield makes them vulnerable to clearance by antibiotics and the immune system.
Klebsiella pneumoniae (KP), a common cause of nosocomial infections was used for all BBs disruption assays. Human recombinant full length HMGB1 (rHMGB1; 1-215), a C45S mutation variant (mHMGB1) and the HMGB1 domains A Box (1-89), B Box (90-176), AB Boxes (1-176), B-linker Box (80-179), and B-linker Box C106S were expressed (in E. coli) and purified to >95%. To evaluate the effect of rHMGB1 and the various domains on established BBs, each protein species (200 nM) was added to pre-formed BBs at 24 h. At 40 h the BBs were washed, stained with LIVE/DEAD®, visualized via confocal laser scanning microscopy and images were analyzed by COMSTAT to calculate average thickness and biomass.

B. cenocepacia biofilm = format: cell-based, Burkholderia cenocepacia; conditions: 200 nM added at 24 h, 16 h exposure
Procedure: Indicated HMGB1 variants or antibodies against DNABII proteins (α-1HFEc 1gG, 1 μM) were added at 24 h to the respective preformed bacterial biofilms, in vitro. After 16 h of Incubation, biofilms were stained with LIVE/DEAD®, then visualized via confocal laser scanning microscopy. Images were analyzed by COMSTAT to calculate average thickness and comparison to control was plotted. (FIG. 5A) Full-length HMGB1 isoforms (200 nM unless otherwise indicated) added to UPEC, B. cenocepacia, NTHI, or ESKAPE pathogens. 800 nM rHMGB1 and 200 nM mHMGB1 were added for S. aureus (ESKAPE). 800 nM rHMGB1, 800 nM mHMGB1, or 3.3 μM of α-1HFEc 1gG were added for E. faecium (ESKAPE) and were incubated for 1 h as opposed to 16 h to avoid potential degradation by E. faecium proteases. […] (FIG. 5C) Individual domains of HMGB1 (200 nM) were tested for anti-biofilm activity as above (dotted line indicates control values). Bars represent the SEM. Statistical significance compared to control was assessed with unpaired t-tests, *P<0.05. […] After 16 h of incubation, biofilms were stained with LIVE/DEAD®, then visualized via confocal laser scanning microscopy. Images were analyzed by COMSTAT to calculate average thickness and total biomass. Error bars represent the SEM. ***P<0.0001; ns=not significant.

NTHI biofilm = assay: in vitro disruption of established biofilms, CLSM and COMSTAT; format: cell-based, Nontypeable Haemophilus influenzae; conditions: 200 nM added at 24 h, 16 h exposure
Procedure: as §1
(§2) HMGB1 disrupts pathogenic biofilms: To test the effect of HMGB1 on bacterial biofilms (FIG. 5), Applicant cloned (IMPACT®, NEB Ipswich, MA), expressed (in E. coli), and purified (heparin sepharose chromatography to >95% purity) tagless human recombinant HMGB1 (rHMGB1) and an engineered C45 S variant (mHMGB1) that mimics the reduced form of HMGB1. rHMGB1 readily forms an intramolecular disulfide bond between C23 and C45 that contributes to pro-inflammatory activity whereas mHMGB1 cannot. These HMGB1 isoforms were evaluated for ability to disrupt established biofilms (formed for 24 h prior to addition). After a 16 h exposure to a single dose of rHMGB1 (200 nM; ˜25-fold greater than typical sepsis serum concentration, but not able to directly induce sepsis), biofilms formed by a wide variety of high priority species were stained with LIVE/DEAD®, analyzed using confocal laser scanning microscopy (CLSM) and COMSTAT analysis and compared to control biofilms. […] Preliminary analysis of PTMs by LC-MS/MS analysis (MS Bioworks, LLC Ann Arbor, MI) indicated minimal modification of both rHMGB1 and nHMGB1 (<20% of the observed peptides had any given PTM, FIG. 1C). […] Thus, while there are intrinsic differences in sensitivity among pathogens, the biofilms formed by all of the tested high priority pathogens were susceptible to a single dose of these non-antimicrobial compounds.
HMGB1 domain structure and anti-biofilm activity: Applicant then produced recombinant HMGB1 truncation variants, of 1) the A Box, a self-contained DNA-binding domain (residues 1-89); 2) an A-B Boxes construct (lacks the C tail; residues 1-185); and 3) the B Box (residues 80 to 176, FIGS. 1A and 1C). […]

UPEC biofilm = assay: as above; format: cell-based, Uropathogenic E. coli; conditions: added at 24 h, 16 h exposure; 200 nM unless stated
Procedure: as §1, §2
HMGB1 domain structure and anti-biofilm activity: Applicant then produced recombinant HMGB1 truncation variants, of 1) the A Box, a self-contained DNA-binding domain (residues 1-89); 2) an A-B Boxes construct (lacks the C tail; residues 1-185); and 3) the B Box (residues 80 to 176, FIGS. 1A and 1C). […] Since only the B Box can modulate DNA bending, without being bound by theory, it was hypothesized that HMGB1 disrupts biofilms at least in part via DNA-binding/bending. As the B Box is reported to contain pro-inflammatory activity, mediated primarily through interactions with TLR4-MD2 that are dependent on residue C106, Applicant created a modified B Box variant (mB Box) with a C106S mutation (FIGS. 1A and 1C).

Molecule	% reduction in average thickness (AT), mean±SE [1]	% reduction in biomass (BM), mean±SE [1]	disruption of established Bc biofilms (B. cenocepacia biofilm)	disruption of established K. pneumoniae biofilms (average thickness, biomass) [1]	disruption of established NTHI biofilms (NTHI biofilm)	disruption of established UPEC biofilms (UPEC biofilm)
B-Box: HMGB1 domain B Box (90-176), listed beside B-linker Box in Experiment No. 1 (protein, UniProt P09429 90-176, looked up, fragment) KDPNAPKRPPSAFFLFCSEYRPKIKGEHPGLSIGDVAKKLGEMWNNTAADDKQPYEKKAAKLKEKYEKDIAAYRAKGKPDAAKKGVV	63%±0.1	68%±0.02				
nHMGB1: native HMGB1 purified from calf thymus (Chondrex, Inc), commercially available, used as a control (protein, UniProt P10103 2-215, looked up) High mobility group protein B1: GKGDPKKPRGKMSSYAFFVQTCREEHKKKHPDASVNFSEFSKKCSERWKTMSAKEKGKFEDMAKADKARYEREMKTYIPPKGETKKKFKDPNAPKRPPSAFFLFCSEYRPKIKGEHPGLSIGDVAKKLGEMWNNTAADDKQPYEKKAAKLKEKYEKDIAAYRAKGKPDAAKKGVVKAEKSKKKKEEEEDEEDEEDEEEEEDEEDEEEEEDDDDE			equivalently disrupted	equivalently disrupted	equivalently disrupted	equivalently disrupted
AB Boxes: HMGB1 A and B domains (1-176), lacks the C tail (protein, UniProt P09429 1-176, looked up, fragment) MGKGDPKKPRGKMSSYAFFVQTCREEHKKKHPDASVNFSEFSKKCSERWKTMSAKEKGKFEDMAKADKARYEREMKTYIPPKGETKKKFKDPNAPKRPPSAFFLFCSEYRPKIKGEHPGLSIGDVAKKLGEMWNNTAADDKQPYEKKAAKLKEKYEKDIAAYRAKGKPDAAKKGVV	64%±0.08	73%±0.02	retained full anti-biofilm activity	retained full anti-biofilm activity	retained full anti-biofilm activity	retained full anti-biofilm activity
A Box: HMGB1 domain A Box (1-89) with C-terminal linker, lacks B box and C tail (protein, UniProt P09429 1-89, looked up, fragment, C-terminal linker, HMGB1 domain A Box (1-89) with C-terminal linker, lacks B box and C tail) MGKGDPKKPRGKMSSYAFFVQTCREEHKKKHPDASVNFSEFSKKCSERWKTMSAKEKGKFEDMAKADKARYEREMKTYIPPKGETKKKF			no significant effect	no significant effect	no significant effect	no significant effect
